The text below walks through data of the Human Domainome abundance scans (Beltran et al. 2025).

To fix the notation:
B1: Apoptosis-associated speck-like protein containing a CARD, residues 114 to 194; numbered along this chain, Q9ULZ3 (parent)
chain: FIDQHRAALIARVTNVEWLLDALYGKVLTDEQYQAVRAEPTNPSKMRKLFSFTPAWNWTCKDLLLQALRESQSYLVEDLER
B2: Serine/threonine-protein kinase LATS1, residues 98 to 141; numbered along this chain, O95835 (parent)
chain: TSEVNPQMLQDLQAAGFDEDMVIQALQKTNNRSIEAAIEFISKM

± gives the uncertainty stated by the source.

Variants of B1 are the subject of one data set. The data set can be described thus: abundance fitness (aPCA) (normalised: wild type 0, dead -1); higher = more abundant; growth selection in yeast, the domain comes from the species named. Particulars: Homo sapiens.
In the case of FIDQHRAALIARVTNVEWLLDALYGKVLTDEQYQAVRAEPTNPSKMRKLFSFTPAWNWTCKDLLLQALRESQSYLVEDRER [L79R], the abundance fitness is -0.751 ± 0.074.

For the variant FIDQHRAALIARVTNVEWLLDALYGKVLTDEQYQAVRAEPTNPSKMRKLFSFTPAWNWTCKDLLLQALRESQSYLVEDYER [L79Y], the abundance fitness was -0.886 ± 0.18.

As for FIDQHRAALIARVTNVEWLLDALYGKVLTDEQYQAVRAEPTNPSKMRKLFSFTPAWNWTCKDLLLQALRESQSYLVEDWER [L79W], the abundance fitness is -1.06 ± 0.22.

With FIDQHRAALIARVTNVEWLLDALYGKVLTDEQYQAVRAEPTNPSKMRKLFSFTPAWNWTCKDLLLQALRESQSYLVEDMER [L79M], the abundance fitness is -0.668 ± 0.19.

For the variant FIDQHRAALIARVTNVEWLLDALYGKVLTDEQYQAVRAEPTNPSKMRKLFSFTPAWNWTCKDLLLQALRESQSYLVEDNER [L79N], the abundance fitness was -0.688 ± 0.38.

FIDQHRAALIARVTNVEWLLDALYGKVLTDEQYQAVRAEPTNPSKMRKLFSFTPAWNWTCKDLLLQALRESQSYLVEDQER [L79Q]: the abundance fitness is -0.706 ± 0.17.

With FIDQHRAALIARVTNVEWLLDALYGKVLTDEQYQAVRAEPTNPSKMRKLFSFTPAWNWTCKDLLLQALRESQSYLVEDTER [L79T], the abundance fitness is -0.848 ± 0.25.

As for FIDQHRAALIARVTNVEWLLDALYGKVLTDEQYQAVRAEPTNPSKMRKLFSFTPAWNWTCKDLLLQALRESQSYLVEDSER [L79S], the abundance fitness is -0.914 ± 0.14.

Consider FIDQHRAALIARVTNVEWLLDALYGKVLTDEQYQAVRAEPTNPSKMRKLFSFTPAWNWTCKDLLLQALRESQSYLVEDVER [L79V], for which the abundance fitness was -0.775 ± 0.15.

For FIDQHRAALIARVTNVEWLLDALYGKVLTDEQYQAVRAEPTNPSKMRKLFSFTPAWNWTCKDLLLQALRESQSYLVEDLSR [E80S], the abundance fitness was -0.204 ± 0.058.

As for FIDQHRAALIARVTNVEWLLDALYGKVLTDEQYQAVRAEPTNPSKMRKLFSFTPAWNWTCKDLLLQALRESQSYLVEDLAR [E80A], the abundance fitness was -0.283 ± 0.079.

FIDQHRAALIARVTNVEWLLDALYGKVLTDEQYQAVRAEPTNPSKMRKLFSFTPAWNWTCKDLLLQALRESQSYLVEDLHR [E80H]: the abundance fitness stood at 0.018 ± 0.34.

Turning to FIDQHRAALIARVTNVEWLLDALYGKVLTDEQYQAVRAEPTNPSKMRKLFSFTPAWNWTCKDLLLQALRESQSYLVEDLRR [E80R], the abundance fitness was -0.461 ± 0.054.

In the case of FIDQHRAALIARVTNVEWLLDALYGKVLTDEQYQAVRAEPTNPSKMRKLFSFTPAWNWTCKDLLLQALRESQSYLVEDLIR [E80I], the abundance fitness was -0.24 ± 0.31.

Turning to FIDQHRAALIARVTNVEWLLDALYGKVLTDEQYQAVRAEPTNPSKMRKLFSFTPAWNWTCKDLLLQALRESQSYLVEDLCR [E80C], the abundance fitness was -0.347 ± 0.079.

Turning to FIDQHRAALIARVTNVEWLLDALYGKVLTDEQYQAVRAEPTNPSKMRKLFSFTPAWNWTCKDLLLQALRESQSYLVEDLYR [E80Y], the abundance fitness is -0.532 ± 0.15.

For FIDQHRAALIARVTNVEWLLDALYGKVLTDEQYQAVRAEPTNPSKMRKLFSFTPAWNWTCKDLLLQALRESQSYLVEDLVR [E80V], the abundance fitness is -0.409 ± 0.067.

Turning to FIDQHRAALIARVTNVEWLLDALYGKVLTDEQYQAVRAEPTNPSKMRKLFSFTPAWNWTCKDLLLQALRESQSYLVEDLQR [E80Q], the abundance fitness was -0.115 ± 0.084.

As for FIDQHRAALIARVTNVEWLLDALYGKVLTDEQYQAVRAEPTNPSKMRKLFSFTPAWNWTCKDLLLQALRESQSYLVEDLGR [E80G], the abundance fitness was -0.317 ± 0.053.

In the case of FIDQHRAALIARVTNVEWLLDALYGKVLTDEQYQAVRAEPTNPSKMRKLFSFTPAWNWTCKDLLLQALRESQSYLVEDLDR [E80D], the abundance fitness is -0.165 ± 0.088.

Turning to FIDQHRAALIARVTNVEWLLDALYGKVLTDEQYQAVRAEPTNPSKMRKLFSFTPAWNWTCKDLLLQALRESQSYLVEDLMR [E80M], the abundance fitness was -0.325 ± 0.14.

For the variant FIDQHRAALIARVTNVEWLLDALYGKVLTDEQYQAVRAEPTNPSKMRKLFSFTPAWNWTCKDLLLQALRESQSYLVEDLKR [E80K], the abundance fitness is -0.751 ± 0.21.

Turning to FIDQHRAALIARVTNVEWLLDALYGKVLTDEQYQAVRAEPTNPSKMRKLFSFTPAWNWTCKDLLLQALRESQSYLVEDLTR [E80T], the abundance fitness is -0.172 ± 0.14.

Consider FIDQHRAALIARVTNVEWLLDALYGKVLTDEQYQAVRAEPTNPSKMRKLFSFTPAWNWTCKDLLLQALRESQSYLVEDLPR [E80P], for which the abundance fitness is -0.467 ± 0.1.

A further data set covers variants of B2. The data set is described as above. The conditions noted are these: Homo sapiens.
On to TSEVGPQMLQDLQAAGFDEDMVIQALQKTNNRSIEAAIEFISKM [N5G], for which the abundance fitness was -0.653 ± 0.04.

On to TSEVHPQMLQDLQAAGFDEDMVIQALQKTNNRSIEAAIEFISKM [N5H], for which the abundance fitness was -0.211 ± 0.075.

For TSEVDPQMLQDLQAAGFDEDMVIQALQKTNNRSIEAAIEFISKM [N5D], the abundance fitness is -0.028 ± 0.051.

Consider TSEVFPQMLQDLQAAGFDEDMVIQALQKTNNRSIEAAIEFISKM [N5F], for which the abundance fitness was -1.21 ± 0.2.

For the variant TSEVEPQMLQDLQAAGFDEDMVIQALQKTNNRSIEAAIEFISKM [N5E], the abundance fitness was -0.442 ± 0.055.

VSEVNPQMLQDLQAAGFDEDMVIQALQKTNNRSIEAAIEFISKM [T1V]: the abundance fitness was -0.148 ± 0.048.

As to DSEVNPQMLQDLQAAGFDEDMVIQALQKTNNRSIEAAIEFISKM [T1D], the abundance fitness was found to be 0.018 ± 0.087.

On to NSEVNPQMLQDLQAAGFDEDMVIQALQKTNNRSIEAAIEFISKM [T1N], for which the abundance fitness worked out at 0.316 ± 0.13.

As to PSEVNPQMLQDLQAAGFDEDMVIQALQKTNNRSIEAAIEFISKM [T1P], the abundance fitness was -0.213 ± 0.074.

Consider ASEVNPQMLQDLQAAGFDEDMVIQALQKTNNRSIEAAIEFISKM [T1A], for which the abundance fitness is -0.062 ± 0.042.

KSEVNPQMLQDLQAAGFDEDMVIQALQKTNNRSIEAAIEFISKM [T1K]: the abundance fitness is -0.012 ± 0.047.

Turning to ISEVNPQMLQDLQAAGFDEDMVIQALQKTNNRSIEAAIEFISKM [T1I], the abundance fitness was -0.079 ± 0.056.

With WSEVNPQMLQDLQAAGFDEDMVIQALQKTNNRSIEAAIEFISKM [T1W], the abundance fitness is -0.197 ± 0.054.

For LSEVNPQMLQDLQAAGFDEDMVIQALQKTNNRSIEAAIEFISKM [T1L], the abundance fitness was -0.303 ± 0.071.

For the variant RSEVNPQMLQDLQAAGFDEDMVIQALQKTNNRSIEAAIEFISKM [T1R], the abundance fitness is -0.072 ± 0.052.

In the case of ESEVNPQMLQDLQAAGFDEDMVIQALQKTNNRSIEAAIEFISKM [T1E], the abundance fitness worked out at 0.019 ± 0.16.

As to GSEVNPQMLQDLQAAGFDEDMVIQALQKTNNRSIEAAIEFISKM [T1G], the abundance fitness turned out to be 0.023 ± 0.041.

MSEVNPQMLQDLQAAGFDEDMVIQALQKTNNRSIEAAIEFISKM [T1M]: the abundance fitness was -0.11 ± 0.067.

Turning to YSEVNPQMLQDLQAAGFDEDMVIQALQKTNNRSIEAAIEFISKM [T1Y], the abundance fitness was -0.26 ± 0.11.

CSEVNPQMLQDLQAAGFDEDMVIQALQKTNNRSIEAAIEFISKM [T1C]: the abundance fitness is -0.098 ± 0.046.

With SSEVNPQMLQDLQAAGFDEDMVIQALQKTNNRSIEAAIEFISKM [T1S], the abundance fitness is 0.021 ± 0.04.

On to QSEVNPQMLQDLQAAGFDEDMVIQALQKTNNRSIEAAIEFISKM [T1Q], for which the abundance fitness was -0.062 ± 0.1.

With FSEVNPQMLQDLQAAGFDEDMVIQALQKTNNRSIEAAIEFISKM [T1F], the abundance fitness was -0.032 ± 0.23.

As for THEVNPQMLQDLQAAGFDEDMVIQALQKTNNRSIEAAIEFISKM [S2H], the abundance fitness was -0.168 ± 0.14.

Regarding TTEVNPQMLQDLQAAGFDEDMVIQALQKTNNRSIEAAIEFISKM [S2T], the abundance fitness is 0.075 ± 0.046.
